{"source": "paper PMC8464984", "about": "“AimR Adopts Preexisting Dimer Conformations for Specific Target Recognition in Lysis-Lysogeny Decisions of Bacillus Phage phi3T” (Biomolecules, 2021)", "molecules": {"B1": {"name": "phi3T target DNA (smFRET titration) (dsDNA)", "DNA 1": "GAAATGTCCAGAAATTCAAAAATCAAAAAATAAGAACATGG", "DNA 2": "CCATGTTCTTATTTTTTGATTTTTGAATTTCTGGACATTTC"}, "B2": {"name": "AimR from Phi3T phage (phAimR), wild type (natural protein, Bacillus phage phi3T)", "chain": "MIKNECEKDNQLAARLAKLAGYEKVNGFYKFVNTPEKEMENLGGLLKIVKNLFPDSEEQLLSEYFLELDPNKKCARQSVEYSDINQWDTLTDKIIINLCNSKNSTSQEWGKVYSLHRKLNKNEISLNDAIRESGKCKIKSAEMLFFSNAMLMYAYLNIGEFGLMKSTSKLLEFDDLPEGFIKESFKSRVSMLEANISLNENSLLEARQHSNRAIENSNVNRICFFAYLTIGNTLIFEDYDEAKKAYIKGQKYAKNPVHQEMLDGALCFLSNIWKKENQWVNYNSDNIKYLQLRAFYYINQGNIEEATEILDELSSRDQDENELGFYYYYKGLISQDKTDYYKSIRYFKKSDDKYFIQLPLLQLERMGADLELLNLISI", "notes": "AimR transcription factor of Bacillus phage phi3T, codon-optimized cDNA (GenBank KY030782.1) in pET15b; theoretical mass printed as 44.3 kDa; 6x His tag removed with drICE protease; Dimer by SLS, AUC and SAXS; also called phi3T AimR; wild-type phAimR; source: E. coli BL21 (DE3), purified (Ni-NTA, anion exchange, size-exclusion chromatography); not shown: His6, N-terminal, cleaved"}, "B3": {"name": "phAimR^C6S/C74S/C99S/C136S/C223S/C267S/N103C, labelled with Alexa488 and Cy5 (natural protein, Bacillus phage phi3T)", "chain": "B2 chain with C6S, C74S, C99S, N103C, C136S, C223S, C267S", "modifications": "Alexa Fluor 488 C5 maleimide or Cy5 maleimide on the cysteine at N103C", "notes": "AimR of Bacillus phage phi3T (GenBank KY030782.1), six solvent-exposed cysteines changed to serine and N103C added for labelling; One dye per chain; the doubly labelled species is a dimer with Alexa488 on one subunit and Cy5 on the other; also called phAimR (N103C labeling site); N103C dye-labeling; source: E. coli BL21 (DE3), purified in the same way as the wild-type phAimR, dye-conjugated, …"}, "B4": {"name": "phAimR: AimR from Phi3T phage (GenBank: KY030782.1), transcription factor and arbitrium peptide receptor (protein)", "chain": "B2 chain", "modifications": "left off: His6, N-terminal, cleaved", "notes": "AimR from Phi3T phage (GenBank: KY030782.1), transcription factor and arbitrium peptide receptor"}, "B5": {"name": "phAimR carrying two amino acids substitutions (phAimR^Y341A/E371A) (natural protein, Bacillus phage phi3T)", "chain": "B2 chain with Y341A, E371A", "notes": "AimR of Bacillus phage phi3T (GenBank KY030782.1) with Y341A and E371A; also called phAim^Y341A/E371A; phAimR^Y341/E371A; source: E. coli BL21 (DE3), purified, prepared in the same way as the wild-type protein; not shown: His6, N-terminal, cleaved"}, "B6": {"name": "phAimR^C6S/C74S/C99S/C136S/C223S/C267S/D174C, labelled with Alexa488 and Cy5 (natural protein, Bacillus phage phi3T)", "chain": "B2 chain with C6S, C74S, C99S, C136S, D174C, C223S, C267S", "modifications": "Alexa Fluor 488 C5 maleimide or Cy5 maleimide on the cysteine at D174C", "notes": "AimR of Bacillus phage phi3T (GenBank KY030782.1), six solvent-exposed cysteines changed to serine and D174C added for labelling; One dye per chain; the doubly labelled species is a dimer with Alexa488 on one subunit and Cy5 on the other; also called phAimR (D174C labeling site); D174C dye-labeling; source: E. coli BL21 (DE3), purified in the same way as the wild-type phAimR, dye-conjugated, …"}, "B7": {"name": "phi3T arbitrium peptide (SAIRGA) (peptide)", "peptide": "SAIRGA", "notes": "mature arbitrium peptide processed from the AimP pro-peptide (43 amino acids) of Bacillus phage phi3T; also called SAIRGA peptide; phi3T-derived peptide"}}, "key": {"phAimR D174C-labeled": {"molecular_target": "T1, phAimR D174C-labeled (Bacillus phage phi3T, UniProt P0DOE3 1-378, C6S;C74S;C99S;C136S;C223S;C267S;D174C)", "T1 sequence": "B2 chain with C6S, C74S, C99S, C136S, D174C, C223S, C267S", "experiment": "smFRET titration; no peptide; EMSA: 25 mM Tris-HCl pH 8.0, 150 mM NaCl, 5 mM MgCl2, 5 mM DTT, 0.1 mg/mL BSA, 10% glycerol, room temperature 10 min, 5 nM probe, protein 0-1 (printed 'M', probably uM); smFRET titration buffer not in the material", "conditions": "protein: recombinant; tags: N-terminal 6xHis removed with drICE protease; Alexa488/Cy5 at C174; chain copies: 2; blunt"}, "phAimR N103C-labeled": {"molecular_target": "T2, phAimR N103C-labeled (Bacillus phage phi3T, UniProt P0DOE3 1-378, C6S;C74S;C99S;C136S;C223S;C267S;N103C)", "T2 sequence": "B2 chain with C6S, C74S, C99S, N103C, C136S, C223S, C267S", "experiment": "smFRET titration; no peptide; EMSA: 25 mM Tris-HCl pH 8.0, 150 mM NaCl, 5 mM MgCl2, 5 mM DTT, 0.1 mg/mL BSA, 10% glycerol, room temperature 10 min, 5 nM probe, protein 0-1 (printed 'M', probably uM); smFRET titration buffer not in the material", "conditions": "protein: recombinant; tags: N-terminal 6xHis removed with drICE protease; Alexa488/Cy5 maleimide at C103; chain copies: 2; blunt"}, "[1]": {"molecular_target": "the molecule itself", "experiment": "SEC-MALS; static light scattering; 1.6 mg/mL protein without peptide; Superdex 200 Increase 10/300 with HELEOS multi-angle light scattering; 25 mM Tris-HCl pH 8.0, 300 mM NaCl"}, "[2]": {"molecular_target": "the molecule itself", "experiment": "SEC; Superdex 200 Increase 10/300 GL; 8.2 uM protein without peptide; 25 mM Tris-HCl pH 8.0, 300 mM NaCl"}, "[3]": {"molecular_target": "the molecule itself", "experiment": "FRET or BRET; smFRET in solution, FRET between the two subunits (one dye site per chain), no ligand; about 100 pM doubly labelled phAimR; 25 C, 20 mM Tris-HCl pH 7.5, 100 mM NaCl, 0.005% Tween 20"}, "[4]": {"molecular_target": "T3, phAimR dimer (N103C-labelled) (Bacillus phage phi3T, UniProt P0DOE3, C136S/C223S/C267S/C6S/C74S/C99S/N103C)", "T3 construct": "6xHis (N, cleaved yes); made in house; host or cells: Escherichia coli BL21 (DE3)", "T3 sequence (P0DOE3 whole entry C6S/C74S/C99S/N103C/C136S/C223S/C267S)": "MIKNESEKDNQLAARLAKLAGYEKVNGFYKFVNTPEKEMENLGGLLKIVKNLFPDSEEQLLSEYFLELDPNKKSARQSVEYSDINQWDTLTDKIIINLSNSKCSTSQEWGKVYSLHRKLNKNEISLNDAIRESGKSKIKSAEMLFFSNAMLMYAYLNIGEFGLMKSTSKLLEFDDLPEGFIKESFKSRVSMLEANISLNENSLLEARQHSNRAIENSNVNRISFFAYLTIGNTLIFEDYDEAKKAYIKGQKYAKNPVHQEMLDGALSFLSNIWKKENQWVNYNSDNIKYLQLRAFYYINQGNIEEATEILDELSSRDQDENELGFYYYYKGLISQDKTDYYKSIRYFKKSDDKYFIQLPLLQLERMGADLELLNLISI", "experiment": "smFRET titration of phAimR dimer labelled at N103C (Alexa488/Cy5)", "type": "binding", "conditions": "no ligand", "method": "(§1) The cysteine substitutions of phAimR (phAimR^C6S/C74S/C99S/C136S/C223S/C267S/N103C or phAimR^C6S/C74S/ C99S/C136S/C223S/C267S/D174C) were generated with a standard PCR-based strategy. Proteins were prepared in the same way as the wild-type phAimR. Alexa Fluor 488 C5 maleimide (Alexa488, A10254, Thermo Fisher, Shanghai, China) and Cy5 maleimide (Cy5, PA15131, GE Healthcare, Shanghai, China) were used as fluorescence donor and acceptor, respectively. A desalting column (HiPrep 26/10, GE Healthcare, Shanghai, China) was used to exchange the protein buffer into the conjugation buffer containing 20 mM phosphate (pH 7.4) and 100 mM NaCl. The protein fraction was collected in premixed Alexa488 and Cy5 dyes. The conjugation of phAimR was performed with Alexa488 and Cy5 at a molar ratio of 1:4:4. Conjugation reaction was performed for 3 h at room temperature in the dark, and the mixture was then purified using a Source-Q column (GE Healthcare, Shanghai, China). The fractions of double-labeled protein that had absorption at 280 nm, 493 nm and 640 nm were collected for smFRET data collection.\n(§2) The laser confocal fluorescence microscope MicroTime 200 (PicoQuant, Berlin, Germany) was used for single-molecule imaging, and a pulsed interleaved excitation (PIE) scheme was used with two SPCM-AQRH detectors (Excelitas, Waltham, MA, USA) for recording fluorescence time traces at two different wavelengths. Two picosecond-pulsed diode laser heads (LDH-P-C-485 and LDH-P-C-640; PicoQuant, Berlin, Germany) were driven by a PDL 828 Sepia II driver (PicoQuant) at a repetition rate of 40 MHz, which allowed interleaved excitations for Alexa488 and Cy5. Each laser was coupled to the inverted microscope IX 73 (Olympus, Beijing, China) through a single-mode fiber, and was reflected by a dichroic mirror through a water-immersion objective (UPLSAPO 60×, N.A. 1.20). The protein sample was loaded onto a hybridization chamber (Thermo Fisher) glued to a glass coverslip (Thermo Fisher, Shanghai, China). The laser confocal point was set to about 50 μm above the coverslip. The excitation power at the back of the objective was about 100 μW for the 485 nm laser and about 35 μW for the 640 nm laser, as estimated with a power meter (PM20-FC; Thorlabs, Shanghai, China). Focused to a 100 μm pinhole, the fluorescence emission from the excited protein molecule was collected with the same objective. The donor and acceptor emissions were separated with a dichroic mirror (T635lpxr; Chroma, Xiamen, China). The donor emission was filtered with a 520/35 BP band pass, and the acceptor emission was filtered with a 690/70 BP band pass, before being focused onto the two SPCM-AQRH detectors.\n(§3) The fluorescence outputs were recorded with a TimeHarp 260 PCI board (PicoQuant, Berlin, Germany) built into a PC workstation, and the data were stored in the time-tagged time-resolved module (PicoQuant, Berlin, Germany). The photon counts including fDex/Dem, fDex/Aem and fAex/Aem were obtained by binning the photons in 1 ms bins using SymPhoTime64 software (PicoQuant, Berlin, Germany). […] With all three fluorescence time traces recorded, the signals from the donor-only or acceptor-only protein molecules were filtered out, so as to ensure that an fDex/Aem photon only arises from a doubly labeled protein. […]"}, "[5]": {"molecular_target": "T4, phAimR dimer (D174C-labelled) (Bacillus phage phi3T, UniProt P0DOE3, C136S/C223S/C267S/C6S/C74S/C99S/D174C)", "T4 construct": "6xHis (N, cleaved yes); made in house; host or cells: Escherichia coli BL21 (DE3)", "T4 sequence (P0DOE3 whole entry C6S/C74S/C99S/C136S/D174C/C223S/C267S)": "as the sequence (P0DOE3 whole entry C6S/C74S/C99S/N103C/C136S/C223S/C267S) above, with C103N, D174C counted along it", "experiment": "smFRET titration of phAimR dimer labelled at D174C (Alexa488/Cy5)", "type": "binding", "conditions": "no ligand", "method": "as §1, §2, §3"}, "[6]": {"molecular_target": "the molecule itself", "experiment": "SAXS; 100 uM protein without peptide; room temperature; 25 mM Tris-HCl pH 8.0, 300 mM NaCl"}, "[7]": {"molecular_target": "B3", "experiment": "FRET or BRET; smFRET in solution; about 100 pM doubly labelled (Alexa488/Cy5) phAimR, peptide titrated; KD from the population of the enriched FRET state; 25 C, 20 mM Tris-HCl pH 7.5, 100 mM NaCl, 0.005% Tween 20, 1 mM L-ascorbic acid, 1 mM methylviologen", "conditions": "both partners purified"}, "[8]": {"molecular_target": "B6", "experiment": "FRET or BRET; smFRET in solution; about 100 pM doubly labelled (Alexa488/Cy5) phAimR, peptide titrated; KD from the population of the enriched FRET state; 25 C, 20 mM Tris-HCl pH 7.5, 100 mM NaCl, 0.005% Tween 20, 1 mM L-ascorbic acid, 1 mM methylviologen", "conditions": "both partners purified"}}, "note": "Where a chain is given by its changes, count along the chain named. In names and notes the source's numbering stands.", "data": [{"molecule": "B1", "values": [{"measurement": "Kd", "setting": "phAimR D174C-labeled", "value": "1260 ± 218", "unit": "nM"}, {"measurement": "Kd", "setting": "phAimR N103C-labeled", "value": "1650 ± 44.6", "unit": "nM"}]}, {"molecule": "B2", "values": [{"measurement": "stoichiometry N", "setting": "[1]", "value": "~2"}, {"measurement": "stoichiometry N", "setting": "[2]", "value": 2}]}, {"molecule": "B3", "values": [{"measurement": "stoichiometry N", "setting": "[3]", "value": 2}]}, {"molecule": "B4", "values": [{"measurement": "FRET efficiency centre of high-FRET species (state 2)", "setting": "[4]", "value": "~62", "unit": "%"}, {"measurement": "FRET efficiency centre of low-FRET species (state 1)", "setting": "[4]", "value": "about 30%"}, {"measurement": "population of high-FRET species (Phigh, state 2)", "setting": "[4]", "value": "~ 42%"}, {"measurement": "population of low-FRET species (Plow, state 1)", "setting": "[4]", "value": "~ 58%"}, {"measurement": "FRET efficiency centre of high-FRET species (state 1)", "setting": "[5]", "value": "~63", "unit": "%"}, {"measurement": "FRET efficiency centre of low-FRET species (state 2)", "setting": "[5]", "value": "about 35%"}, {"measurement": "population of high-FRET species (state 1)", "setting": "[5]", "value": "~ 61%"}, {"measurement": "population of low-FRET species (state 2)", "setting": "[5]", "value": "~ 39%"}]}, {"molecule": "B5", "values": [{"measurement": "stoichiometry N", "setting": "[6]", "value": 2}]}, {"molecule": "B6", "values": [{"measurement": "stoichiometry N", "setting": "[3]", "value": 2}]}, {"molecule": "B7", "values": [{"measurement": "Kd", "setting": "[7]", "value": "41.5 ± 5.8", "unit": "nM"}, {"measurement": "Kd", "setting": "[8]", "value": "22.9 ± 0.5", "unit": "nM"}]}]}
